This passage reports abundance of the pol η TLS complex (P2, probability of insertion and primer extension by pol η on the undamaged TT P/T DNA substrate under single turnover conditions: stimulation in the presence of PCNA against pol η alone results from publication PMC5123862.

Assay [1] concerns the target Monoubiquitinated PCNA ((Ub)3-PCNA): a single ubiquitin moiety on K164 of each monomer within a homotrimeric clamp ring (human) (UniProt P12004).
Assay [2] has as its target Wild-type PCNA (human) (human) (UniProt P12004).

Wild-type PCNA (human) (human), sequence (P12004 whole entry): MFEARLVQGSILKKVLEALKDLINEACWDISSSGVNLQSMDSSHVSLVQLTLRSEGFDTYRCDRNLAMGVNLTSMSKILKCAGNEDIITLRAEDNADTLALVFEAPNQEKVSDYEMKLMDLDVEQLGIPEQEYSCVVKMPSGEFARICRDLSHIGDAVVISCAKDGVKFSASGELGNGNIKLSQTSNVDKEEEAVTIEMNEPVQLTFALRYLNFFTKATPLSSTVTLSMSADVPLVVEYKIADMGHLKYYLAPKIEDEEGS

B1: Pol η (human DNA polymerase eta, full length, wild type, unlabeled) (enzyme)
chain: MATGQDRVVALVDMDCFFVQVEQRQNPHLRNKPCAVVQYKSWKGGGIIAVSYEARAFGVTRSMWADDAKKLCPDLLLAQVRESRGKANLTKYREASVEVMEIMSRFAVIERASIDEAYVDLTSAVQERLQKLQGQPISADLLPSTYIEGLPQGPTTAEETVQKEGMRKQGLFQWLDSLQIDNLTSPDLQLTVGAVIVEEMRAAIERETGFQCSAGISHNKVLAKLACGLNKPNRQTLVSHGSVPQLFSQMPIRKIRSLGGKLGASVIEILGIEYMGELTQFTESQLQSHFGEKNGSWLYAMCRGIEHDPVKPRQLPKTIGCSKNFPGKTALATREQVQWWLLQLAQELEERLTKDRNDNDRVATQLVVSIRVQGDKRLSSLRRCCALTRYDAHKMSHDAFTVIKNCNTSGIQTEWSPPLTMLFLCATKFSASAPSSSTDITSFLSSDPSSLPKVPVTSSEAKTQGSGPAVTATKKATTSLESFFQKAAERQKVKEASLSSLTAPTQAPMSNSPSKPSLPFQTSQSTGTEPFFKQKSLLLKQKQLNNSSVSSPQQNPWSNCKALPNSLPTEYPGCVPVCEGVSKLEESSKATPAEMDLAHNSQSMHASSASKSVLEVTQKATPNPSLLAAEDQVPCEKCGSLVPVWDMPEHMDYHFALELQKSFLQPHSSNPQVVSAVSHQGKRNPKSPLACTNKRPRPEGMQTLESFFKPLTH
For the molecule B1, in assay [1], the abundance of the pol η TLS complex (P2, probability of insertion at i = 2) on undamaged TT P/T DNA: increase in the presence of (Ub)3-PCNA was found to be 2.75 fold. For the same molecule, in assay [2], the abundance of the pol η TLS complex (P2, probability of insertion at i = 2) on undamaged TT P/T DNA: increase in the presence of PCNA was 2.53 fold and the primer extension by pol η on the undamaged TT P/T DNA substrate under single turnover conditions: stimulation in the presence of PCNA against pol η alone came out at 2.02 fold.
